Assay results from PMC2942077 (Biochemistry, 2010).

Key:
Test in all cases: pull-down
[1] = biological target: T1, purified recombinant wild-type human RP2 (human, UniProt O75695 1-350)
T1 sequence (looked up): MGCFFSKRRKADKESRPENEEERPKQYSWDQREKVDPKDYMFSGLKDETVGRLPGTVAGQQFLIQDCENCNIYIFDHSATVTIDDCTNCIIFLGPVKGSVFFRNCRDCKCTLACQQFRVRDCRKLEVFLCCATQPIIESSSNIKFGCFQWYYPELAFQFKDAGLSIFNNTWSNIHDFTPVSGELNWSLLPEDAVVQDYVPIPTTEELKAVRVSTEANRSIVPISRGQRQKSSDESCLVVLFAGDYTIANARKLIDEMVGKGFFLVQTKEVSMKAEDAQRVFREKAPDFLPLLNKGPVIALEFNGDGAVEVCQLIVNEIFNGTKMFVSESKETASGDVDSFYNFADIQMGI

[2] = biological target: T2, RP2 R118H disease-linked mutant, purified recombinant (human, UniProt O75695 1-350, R118H)
T2 sequence (looked up): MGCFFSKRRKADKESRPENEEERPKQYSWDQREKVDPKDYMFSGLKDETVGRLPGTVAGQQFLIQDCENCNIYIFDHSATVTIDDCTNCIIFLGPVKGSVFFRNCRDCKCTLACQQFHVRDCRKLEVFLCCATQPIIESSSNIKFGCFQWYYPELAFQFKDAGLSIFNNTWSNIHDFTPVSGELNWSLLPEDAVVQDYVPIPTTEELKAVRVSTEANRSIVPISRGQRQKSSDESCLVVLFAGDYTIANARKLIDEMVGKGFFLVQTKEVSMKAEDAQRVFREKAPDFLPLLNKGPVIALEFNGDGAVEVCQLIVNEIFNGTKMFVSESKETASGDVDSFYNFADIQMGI

[3] = biological target: T3, RP2 L188P disease-causing mutant, purified recombinant (human, UniProt O75695 1-350, L188P)
T3 sequence (looked up): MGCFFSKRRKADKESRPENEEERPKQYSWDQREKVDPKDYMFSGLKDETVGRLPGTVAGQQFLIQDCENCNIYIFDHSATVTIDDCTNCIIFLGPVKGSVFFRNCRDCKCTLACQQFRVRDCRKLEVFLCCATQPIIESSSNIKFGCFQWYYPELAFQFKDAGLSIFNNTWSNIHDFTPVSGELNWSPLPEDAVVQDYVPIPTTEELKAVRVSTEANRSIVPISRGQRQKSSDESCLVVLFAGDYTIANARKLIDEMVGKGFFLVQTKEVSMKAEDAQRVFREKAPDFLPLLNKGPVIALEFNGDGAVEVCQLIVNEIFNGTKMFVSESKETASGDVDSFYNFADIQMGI

[4] = biological target: T4, RP2 R282W disease-linked mutant, purified recombinant (human, UniProt O75695 1-350, R282W)
T4 sequence (looked up): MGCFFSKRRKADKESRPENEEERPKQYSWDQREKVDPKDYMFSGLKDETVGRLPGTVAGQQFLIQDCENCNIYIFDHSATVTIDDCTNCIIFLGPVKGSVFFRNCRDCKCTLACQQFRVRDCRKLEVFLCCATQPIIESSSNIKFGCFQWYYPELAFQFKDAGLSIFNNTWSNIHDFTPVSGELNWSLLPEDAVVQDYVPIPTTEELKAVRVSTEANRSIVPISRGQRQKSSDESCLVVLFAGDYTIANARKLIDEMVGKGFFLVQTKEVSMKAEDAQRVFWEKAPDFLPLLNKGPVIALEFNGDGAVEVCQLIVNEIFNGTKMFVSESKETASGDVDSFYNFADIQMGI

- binding result [1]: binds
- binding result [2]: binds
- binding result [3]: binds
- binding result [4]: binds
B1: GST fusion protein containing the N-terminal domain of NSF (domain or fragment, Chinese hamster, UniProt P18708 1-205, looked up)
chain: MAGRSMQAARCPTDELSLSNCAVVSEKDYQSGQHVIVRTSPNHKYIFTLRTHPSVVPGSVAFSLPQRKWAGLSIGQEIEVALYSFDKAKQCIGTMTIEIDFLQKKNIDSNPYDTDKMAAEFIQQFNNQAFSVGQQLVFSFNDKLFGLLVKDIEAMDPSILKGEPASGKRQKIEVGLVVGNSQVAFEKAENSSLNLIGKAKTKENR
